This assay deals with His6-FLAG-MBP-tagged DHX15 (aa 113–795) (human, UniProt O43143 113-795). In words: co-IP.
Chain of His6-FLAG-MBP-tagged DHX15 (aa 113–795) (O43143 113-795): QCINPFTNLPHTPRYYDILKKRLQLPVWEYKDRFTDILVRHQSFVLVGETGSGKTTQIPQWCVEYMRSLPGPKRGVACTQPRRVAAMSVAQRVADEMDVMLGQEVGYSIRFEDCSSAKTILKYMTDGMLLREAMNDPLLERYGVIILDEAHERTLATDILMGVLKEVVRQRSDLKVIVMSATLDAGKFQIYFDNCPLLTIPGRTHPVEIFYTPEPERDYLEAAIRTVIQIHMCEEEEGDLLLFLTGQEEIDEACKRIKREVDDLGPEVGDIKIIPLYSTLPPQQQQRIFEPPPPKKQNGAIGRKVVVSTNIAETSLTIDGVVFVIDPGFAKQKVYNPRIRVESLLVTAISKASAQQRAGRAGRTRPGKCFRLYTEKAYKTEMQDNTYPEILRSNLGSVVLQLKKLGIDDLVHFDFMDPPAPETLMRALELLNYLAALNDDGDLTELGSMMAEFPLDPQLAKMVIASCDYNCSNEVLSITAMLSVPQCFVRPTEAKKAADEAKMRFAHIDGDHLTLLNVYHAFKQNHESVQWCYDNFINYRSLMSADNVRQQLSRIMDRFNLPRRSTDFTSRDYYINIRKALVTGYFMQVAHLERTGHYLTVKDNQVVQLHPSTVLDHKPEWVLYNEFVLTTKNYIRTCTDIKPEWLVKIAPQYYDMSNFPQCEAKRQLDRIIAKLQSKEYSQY

B1: His6-HA-tagged SUGP1 WT (full length) (natural protein)
chain: MSLKMDNRDVAGKANRWFGVAPPKSGKMNMNILHQEELIAQKKREIEAKMEQKAKQNQVASPQPPHPGEITNAHNSSCISNKFANDGSFLQQFLKLQKAQTSTDAPTSAPSAPPSTPTPSAGKRSLLISRRTGLGLASLPGPVKSYSHAKQLPVAHRPSVFQSPDEDEEEDYEQWLEIKVSPPEGAETRKVIEKLARFVAEGGPELEKVAMEDYKDNPAFAFLHDKNSREFLYYRKKVAEIRKEAQKSQAASQKVSPPEDEEVKNLAEKLARFIADGGPEVETIALQNNRENQAFSFLYEPNSQGYKYYRQKLEEFRKAKASSTGSFTAPDPGLKRKSPPEALSGSLPPATTCPASSTPAPTIIPAPAAPGKPASAATVKRKRKSRWGPEEDKVELPPAELVQRDVDASPSPLSVQDLKGLGYEKGKPVGLVGVTELSDAQKKQLKEQQEMQQMYDMIMQHKRAMQDMQLLWEKAVQQHQHGYDSDEEVDSELGTWEHQLRRMEMDKTREWAEQLTKMGRGKHFIGDFLPPDELEKFMETFKALKEGREPDYSEYKEFKLTVENIGYQMLMKMGWKEGEGLGSEGQGIKNPVNKGTTTVDGAGFGIDRPAELSKEDDEYEAFRKRMMLAYRFRPNPLNNPRRPYY
With B1, the binding result is recorded as “binds”.

The values above are taken from publication PMC9894173 (Proceedings of the National Academy of Sciences of the …, 2022).
